Where a chain is given by its changes, count along the chain named. Where two headings read alike, the source gives them in different places. Each block holds one binder with its values, some of them ahead of it.
How the values were obtained:
[1] = molecular target: human IL4Rα expressed on HEK293T-IL4Rα-STAT6-STAT6LUC-LB2 cells (human, UniProt P24394 26-825); assay: cell-based or functional assay
[2] = molecular target: T1, recombinant human IL4Rα-his protein (in house made) (human, UniProt P24394 26-232, limits assumed); assay: capture ELISA, biotin-IL4Rα-his
T1 construct: also called Human IL4Ra-his

[3] = molecular target: T2, human IL4Rα expressed on 293F-IL4Rα cells (human, UniProt P24394 26-825); assay: flow cytometry, 293F-IL4Rα cells
T2 construct: whole, on cells; also called cell surface human IL4Rα
Description: Then, 2×10⁵ cells per well in 96 well-plates were incubated in 100 μL of the anti-IL4Rα antibodies or controls of various concentrations (starting at 80 nM with a 4-fold serial dilution) in FACS buffer for 40 minutes on ice. […] Following an incubation of 40 minutes at 4° C. in dark, cells were washed three times and resuspended in FACS buffer. Fluorescence was measured using a Becton Dickinson FACS Canto II-HTS equipment. Data was analyzed using Graphpad Prism software and EC₅₀ values were reported.

[4] = molecular target: T3, marmoset monkey IL4Rα-his protein (marmoset monkey); assay: indirect ELISA, coated cal-IL4Rα-his
T3 construct: Custom made by Sino biological; no cleavage site stated; also called cal-IL4Rα-his; Cal-IL4Rα
T3 chain: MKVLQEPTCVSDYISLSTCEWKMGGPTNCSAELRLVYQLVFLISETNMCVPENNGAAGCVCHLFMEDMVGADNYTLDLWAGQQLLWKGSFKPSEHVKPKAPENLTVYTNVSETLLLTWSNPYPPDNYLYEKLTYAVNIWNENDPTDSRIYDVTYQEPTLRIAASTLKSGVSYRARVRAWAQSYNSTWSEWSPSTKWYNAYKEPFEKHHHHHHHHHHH

[5] = molecular target: T4, cynomolgus monkey IL4Rα-his protein (cynomolgus monkey, UniProt A0A2K5V580 33-239); assay: indirect ELISA, coated cyno IL4Rα-his
T4 construct: Bought protein; also called Cynomolgus IL4Rα; Cyno-IL4Rα-his; not shown: his tag

[6] = molecular target: T2, human IL4Rα expressed on 293F-IL4Rα …; assay: flow cytometry on 293F-IL4Rα cells
[7] = molecular target: T3, marmoset monkey IL4Rα-his protein; assay: indirect ELISA on coated cal-IL4Rα-his
[8] = molecular target: T1, recombinant human IL4Rα-his protein (in …); assay: SPR (Biacore), antibody captured, IL4Rα-his flowed
[9] = molecular target: T1, recombinant human IL4Rα-his protein (in …); assay: SPR (Biacore), antibody captured, IL4Rα-his flowed; remark: listed apart in the source
[10] = molecular target: T4, cynomolgus monkey IL4Rα-his protein; assay: indirect ELISA on coated cynomolgus IL4Rα-his
[11] = molecular target: T2, human IL4Rα expressed on 293F-IL4Rα …; assay: flow cytometry, blocks biotin-IL4 binding to 293F-IL4Rα cells
Description: Then, 1×10⁵ cells per well in 96 well-plates were incubated in 100 μL of the anti-IL4Rα antibodies or controls of various concentrations (starting at 80 nM with a 4-fold serial dilution) in FACS buffer for 40 minutes on ice. The plates were washed twice with FACS buffer, and added and incubated for 40 minutes at 4° C. in dark with 100 μl/well 1.67 nM biotin-labeled human IL4 protein (Sino biological inc., Cat #11846-HNAE). The plates were washed twice with FACS buffer, and then added and incubated for 40 minutes at 4° C. in dark with 100 μl/well R-Phycoerythrin Streptavidin (1:500 dilution in FACS buffer, Jackson Immunoresearch, Cat #016-110-084). Cells were washed twice and resuspended in FACS buffer. Fluorescence was measured using a Becton Dickinson FACS Canto II-HTS equipment. Data was analyzed using Graphpad Prism software and IC₅₀ values were reported.

[12] = molecular target: T1, recombinant human IL4Rα-his protein (in …); assay: competitive ELISA, blocks biotin-IL4 binding to coated IL4Rα-his
Description: Serially diluted anti-IL4Rα antibodies or the controls (starting at 80 nM with a 4-fold serial dilution) in 2.5% w/v non-fatty milk in PBST, 100 μl per well, were added to the IL4Rα bound plates, and incubated with the human IL4Rα-his proteins at 37° C. for 40 minutes. Plates were washed 4 times using wash buffer, and then added and incubated for 40 minutes at 37° C. with 100 μl/well of 0.56 nM biotin-labeled human IL4 protein (Sino biological inc., Cat #11846-HNAE). Plates were washed again using wash buffer. Thereafter, the plates were added with 100 μl/well of streptavidin conjugated HRP (1:10000 dilution in PBST buffer, Jackson Immunoresearch, Cat #016-030-084) and incubated for 40 minutes at 37° C. Plates were washed again using wash buffer. Finally, TMB was added and the reaction was stopped using 1M H₂SO₄, and the absorbance was read at 450 nm. Data was analyzed using Graphpad Prism software and IC₅₀ values were reported.

[13] = molecular target: T2, human IL4Rα expressed on 293F-IL4Rα …; assay: flow cytometry on 293F-IL4Rα cells, blocked ligand biotin human IL4
[14] = molecular target: T1, recombinant human IL4Rα-his protein (in …); assay: competitive ELISA, blocks biotin-IL4Rα-his binding to coated Benchmark (competitor)
Description: The ability of the anti-IL4Rα antibodies of the disclosure to block benchmark-human IL4Rα binding was measured in a competitive ELISA assay. Briefly, the benchmark was coated on 96-well micro plates at 2 μg/mL in PBS, 100 μl per well, and incubated overnight at 4° C. The next day, plates were washed with wash buffer (PBS+0.05% w/v Tween-20, PBST), and blocked with 5% w/v non-fatty milk in PBST for 2 hours at 37° C. tiring plate blocking, the anti-IL4Rα antibodies of the disclosure or controls were diluted with biotin labeled human IL4Rα-his proteins (prepared in-house with SEQ ID NO: 57, 0.55 nM in 2.5% w/v non-fatty milk in PBST), starting at 100 nM with a 4-fold serial dilution, and incubated at 25° C. for 40 minutes. After plate washing, the antibody/IL4Rα-his mixtures were added to benchmark coated plates, 100 μl per well. After incubation at 37° C. for 40 minutes, plates were washed using wash buffer. Then the plates were added and incubated with 100 μl/well streptavidin conjugated HRP for 40 minutes at 37° C. to detect biotin-labeled human IL4Rα-his bound to plates. Plates were washed again using wash buffer. Finally, TMB was added and the reaction was stopped using 1M H₂SO₄, and the absorbance was read at 450 nm. Data was analyzed using Graphpad Prism software and IC₅₀ values were reported.

[15] = molecular target: T1, recombinant human IL4Rα-his protein (in …); assay: competitive ELISA: coated human IL4Rα-his, blocked ligand biotin human IL4
[16] = molecular target: T1, recombinant human IL4Rα-his protein (in …); assay: capture ELISA: antibody captured on anti-IgG Fc plate, biotin human IL4Rα-his detected
[17] = molecular target: T1, recombinant human IL4Rα-his protein (in …); assay: competitive ELISA: antibody mixed with biotin human IL4Rα-his, competitor plate-coated Benchmark
[18] = molecular target: T2, human IL4Rα expressed on 293F-IL4Rα …; assay: flow cytometry on 293F-IL4Rα cells; remark: listed apart in the source
[19] = molecular target: T3, marmoset monkey IL4Rα-his protein; assay: indirect ELISA on coated cal-IL4Rα-his
[20] = molecular target: T1, recombinant human IL4Rα-his protein (in …); assay: SPR (Biacore), antibody captured, IL4Rα-his flowed; remark: listed apart in the source
[21] = molecular target: T4, cynomolgus monkey IL4Rα-his protein; assay: indirect ELISA on coated cynomolgus IL4Rα-his; remark: listed apart in the source
[22] = molecular target: T2, human IL4Rα expressed on 293F-IL4Rα …; assay: flow cytometry on 293F-IL4Rα cells, blocked ligand biotin human IL4; remark: listed apart in the source
[23] = molecular target: T1, recombinant human IL4Rα-his protein (in …); assay: competitive ELISA: coated human IL4Rα-his, blocked ligand biotin human IL4; remark: listed apart in the source
[24] = molecular target: T1, recombinant human IL4Rα-his protein (in …); assay: capture ELISA: antibody captured on anti-IgG Fc plate, biotin human IL4Rα-his detected; remark: listed apart in the source
[25] = molecular target: T1, recombinant human IL4Rα-his protein (in …); assay: competitive ELISA: antibody mixed with biotin human IL4Rα-his, competitor plate-coated Benchmark; remark: listed apart in the source

B2: huB8G11F2B7G5E8-V4 (antibody, human IgG4 S228P, kappa, V domains shown)
VH: EVQLVQSGAEVKKPGATVKISCKASGFNIKDTYMHWVKQAPGKGLEWMGRIDPTNGYTIYASKFQGKATITADTSSNTAYMELSSLRSEDTAVYHCVSRRPWFAYWGQGTLVTVSS
VL: DIVMTQTPLSLSVTPGQPASISCRSSQSIVHSNGNTYLEWYLQKPGQSPQLLIYKVTNRFSGVPDRFSGSGSGTDFTLKISRVEAEDVGVYYCFQGSHVPYTFGQGTKLEIKR
notes: Humanized, human IgG4/kappa; also called huBSG11F2B7G5E8-V4
Inhibition on IL4 induced STAT6 phosphorylation (IC50, nM) [1]: 0.3 nM
Inhibition on IL13 induced STAT6 phosphorylation (IC50, nM) [1]: 0.81 nM
EC50 [2]: 0.27 nM
EC50 [3]: 0.41 nM
EC50 [4]: 0.73 nM
EC50 [5]: 7.12 nM
EC50 [6]: 0.414 nM
EC50 [7]: 0.726 nM
Kd [8]: 3.21 nM
koff [8]: 0.00185 s⁻¹
kon [8]: 577000 M⁻¹ s⁻¹
Kd [9]: 5.5 nM
EC50 [10]: 7.12 nM
IC50 [11]: 0.51 nM
IC50 [12]: 0.82 nM
IC50 [13]: 0.513 nM
IC50 [14]: 1.24 nM
IC50 [15]: 0.825 nM
EC50 [16]: 0.275 nM
IC50 [17]: 1.24 nM

B3: huB8G11F2B7G5E8-V2 (antibody, human IgG4 S228P, kappa, V domains shown)
VH: B2 VH with A24V, M48V
VL: B2 VL
notes: Humanized, human IgG4/kappa; also called huBSG11F2B7G5E8-V2
Inhibition on IL4 induced STAT6 phosphorylation (IC50, nM) [1]: 0.4 nM
Inhibition on IL13 induced STAT6 phosphorylation (IC50, nM) [1]: 0.63 nM
EC50 [2]: 0.27 nM
EC50 [3]: 0.43 nM
EC50 [4]: 0.8 nM
EC50 [5]: 914 nM
EC50 [6]: 0.426 nM
EC50 [7]: 0.799 nM
Kd [8]: 3.1 nM
koff [8]: 0.00162 s⁻¹
kon [8]: 521000 M⁻¹ s⁻¹
Kd [9]: 4.1 nM
EC50 [10]: 914 nM
IC50 [11]: 0.54 nM
IC50 [12]: 1 nM
IC50 [13]: 0.538 nM
IC50 [14]: 1.2 nM
IC50 [15]: 1 nM
EC50 [16]: 0.274 nM
IC50 [17]: 1.2 nM

Next, values leading:

Inhibition on IL4 induced STAT6 phosphorylation (IC50, nM) [1]: 0.26 nM
Inhibition on IL13 induced STAT6 phosphorylation (IC50, nM) [1]: 0.66 nM
EC50 [2]: 0.24 nM
EC50 [3]: 0.52 nM
EC50 [4]: 1.06 nM
EC50 [5]: 137 nM
EC50 [6]: 0.517 nM
EC50 [7]: 1.06 nM
Kd [8]: 3.69 nM
koff [8]: 0.00113 s⁻¹
kon [8]: 306000 M⁻¹ s⁻¹
Kd [9]: 3.88 nM
EC50 [10]: 137 nM
IC50 [11]: 0.6 nM
IC50 [12]: 1.02 nM
IC50 [13]: 0.601 nM
IC50 [14]: 0.76 nM
IC50 [15]: 1.02 nM
EC50 [16]: 0.237 nM
IC50 [17]: 0.763 nM
B1: huB8G11F2B7G5E8-V14 (antibody, human IgG4 S228P, kappa, V domains shown)
VH: B2 VH with A24V
VL: B2 VL
notes: Humanized, human IgG4/kappa; also called huBSG11F2B7G5E8-V14

Inhibition on IL4 induced STAT6 phosphorylation (IC50, nM) [1]: 0.64 nM
Inhibition on IL13 induced STAT6 phosphorylation (IC50, nM) [1]: 0.73 nM
EC50 [2]: 0.06 nM
EC50 [3]: 0.39 nM
EC50 [4]: 0.55 nM
EC50 [5]: 0.68 nM
EC50 [18]: 0.39 nM
EC50 [19]: 0.555 nM
Dissociation % [20]: 0.8%
End (RU) [20]: 50.5 RU
Kd [20]: < 0.0654 nM
Start (RU) [20]: 50.1 RU
koff [20]: < 1e-05 s⁻¹
kon [20]: 153000 M⁻¹ s⁻¹
Kd [9]: 0.642 nM
EC50 [21]: 0.677 nM
IC50 [11]: 0.58 nM
IC50 [12]: 2.17 nM
IC50 [22]: 0.578 nM
IC50 [14]: 0.17 nM
IC50 [23]: 2.17 nM
EC50 [24]: 0.0616 nM
IC50 [25]: 0.171 nM
B4: huC2C1A1A1-V14 (antibody, human IgG4 S228P, kappa, V domains shown)
VH: EVQLVESGGGLVQPGGSLRLSCAASGFTFSTYGMSWVRQAPGKGLVWVATINSNGGSTSYPDSVKGRFTISRDNAKNTLYLQMNSLRAEDTAVYYCARFFRFRNAMDYWGQGTLVTVSS
VL: DIQMTQSPSSLSASVGQRVTITCRTSENIYSYLAWYQQKQGKPPRFLIYNAKTLAEGVPSRFSGSGSGTEFTLTITSLQAEDFGVYYCQHYYGPPTWTFGPGTKLEIKR
notes: Humanized, human IgG4/kappa

From patent US20230105029A1 (CHIA TAI TIANQING PHARMACEUTICAL GROUP, published 2023)
